Measurements taken from US20060270591A1, “Androgen receptor coregulators” (priority 2002, published 2006).

T1: ARA54-ARA54 interactions (Homo sapiens, UniProt Q9UBS8)
T1 construct: fl-ARA54, full-length ARA54; expressed in transfected cells; host or cells: DU145
T1 sequence (Q9UBS8 1-474): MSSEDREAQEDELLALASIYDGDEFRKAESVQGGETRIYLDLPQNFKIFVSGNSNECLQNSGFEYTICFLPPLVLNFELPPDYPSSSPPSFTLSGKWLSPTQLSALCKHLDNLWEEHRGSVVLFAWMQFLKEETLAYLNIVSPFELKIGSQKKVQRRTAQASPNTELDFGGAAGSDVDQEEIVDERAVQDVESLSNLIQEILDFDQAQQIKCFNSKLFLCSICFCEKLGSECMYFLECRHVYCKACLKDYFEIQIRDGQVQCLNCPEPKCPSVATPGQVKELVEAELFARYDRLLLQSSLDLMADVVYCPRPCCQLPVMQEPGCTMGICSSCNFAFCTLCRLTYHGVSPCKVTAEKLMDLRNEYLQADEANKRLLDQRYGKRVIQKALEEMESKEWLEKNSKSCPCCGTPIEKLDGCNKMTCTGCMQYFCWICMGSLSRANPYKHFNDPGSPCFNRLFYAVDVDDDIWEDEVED

B1: ARA54: 54 kDa protein that interacts with AR in an androgen-dependent manner; AR coactivator (protein)
chain: T1 sequence (Q9UBS8 1-474)
B2: C′-ARA54: C-terminal region (amino acids 361-474) of ARA54 (protein)
chain: RNEYLQADEANKRLLDQRYGKRVIQKALEEMESKEWLEKNSKSCPCCGTPIEKLDGCNKMTCTGCMQYFCWICMGSLSRANPYKHFNDPGSPCFNRLFYAVDVDDDIWEDEVED
modifications: Homo sapien
notes: C-terminal region (amino acids 361-474) of ARA54

Columns and labels:
AR = conditions: prostate cancer cells; androgens or HF; cited from earlier work
PSA = assay: Western blot of endogenous PSA in stably transfected LNCaP cells; format: cell-based, human; conditions: stable LNCaP cells; +doxy; 1 nM DHT; vector alone without doxy = 100%
Text: 14. […] (A) The effects of C′-ARA54 and mt-ARA54 on cell proliferation. […] Total cell number was counted by hemocytometer. Values represent the mean±SD of at least three determinations. (B) The effects of C′-ARA54 and mt-ARA54 on AR transcription activity. LNCaP cells stably transfected with pBIG2i (vector alone), pBIG2i-C′-ARA54, pBIG2i-mt-ARA54, or pBIG2i-fl-ARA54 were transiently transfected with MMTV-Luc. […] Values represent the mean±SD of at least three determinations. (C) The effects of C′-ARA54 and mt-ARA54 on PSA expression. […] The 33-kDa of protein was detected as indicated and quantitated by Collage Image Analysis software (Fotodyne). The normalized expression level in the first lane (vector alone without doxy treatment) was set as 100%. Values represent the mean±SD of three separate experiments.
395. […]

ARA54-ARA54 interactions = target: T1, ARA54-ARA54 interactions; assay: Mammalian two-hybrid assay of ARA54-ARA54 interaction in DU145 cells; format: cell-based
Method: 15. […] DU145 cells were transfected with 2.5 μg of GAL4-hybrid expression plasmid (pGAL0-AR (A) or pCMX-GAL4 DBD-fl-ARA54 (B)), 2.5 μg of VP16-hybrid expression plasmid (pCMX-VP16-fl-ARA54), and 2.5 μg of pG5-CAT, with or without 2.5 μg of pSG5-C′-ARA54 (C′) or pSG5-mt-ARA54 (mt). pCMX-VP16-C′-ARA54 and pCMX-VP16-mt-ARA54 were also cotransfected to test the interactions with AR (A) and fl-ARA54 (B). The total amount of DNA was adjusted to 11.0 μg with pSG5 and/or pVP16 for each transfection. The CAT activity was determined and each CAT activity is presented relative to that of lane 4 in each panel (black bars; set as 100%). Values represent the mean±SD of at least three determinations.
397. DU145 cells were transiently cotransfected with a GAL4-hybrid expression plasmid, a VP16-hybrid expression plasmid, the reporter plasmid pG5-CAT, and the pCMV-O-gal internal control plasmid. Transfections and CAT assays were performed as described above.

Molecule | enhancement of transactivation of wild-type AR and LNCaP mutant AR (AR) | endogenous PSA expression (PSA) [%] | CAT activity of GAL4-fl-ARA54 / VP16-fl-ARA54 interaction (ARA54-ARA54 interactions)
B1 | 2-6 fold |  | 
B2 |  | 87 | returned to the basal levels
